The target in assay [1] is human EGFR on tumor cells (human) (UniProt P00533). The assay can be described thus: cell-based or functional assay.
For assay [2] the target is unchanged. In words: FACS, A431 cells preincubated with 2 ug EGF, 2 uM bio-P190:avidin complex, 4 °C. For orientation: A flow cytometer gives signals particle by particle.

Bridges are numbered along the chain shown (N, C = ends). Where no end group is shown, it is not given here. DSPE = distearoylphosphatidylethanolamine; PEG3400 = polyethylene glycol, 3400 Da; PEG = not defined here

B1: P190-PEG-DSPE conjugate inserted in STEALTH liposomes (peptide)
peptide: {DSPE-PEG3400}-DPCTWEVWGRECLQ
modifications: disulfide 3-12; not fully specified; also: inserted in liposomes
Regarding B1, in assay [1], the IC50 D4 (ug/ml), cell killing of MDA-MB-468 cells, 1 h treatment stood at 120 µg/mL and the IC50 D6 (ug/ml), cell killing of MDA-MB-468 cells, 1 h treatment amounted to 35 µg/mL.

B2: Biotinylated-PEGylated P190 (peptide)
peptide: DPCTWEVWGRECLQ-{PEG-biotin}
modifications: disulfide 3-12 (inferred); reading uncertain
Consider B2, for which the staining, fold over background (fold over background) in assay [2] was 20.

These data come from patent publication US20100151003A1.
